# Laboratory results: publication PMC2064162 (The Journal of Cell Biology, 2006)
# Target: Sar1p (yeast, UniProt P20606 1-190)
# Assay: pull-down
# Sar1p, sequence (P20606 whole entry): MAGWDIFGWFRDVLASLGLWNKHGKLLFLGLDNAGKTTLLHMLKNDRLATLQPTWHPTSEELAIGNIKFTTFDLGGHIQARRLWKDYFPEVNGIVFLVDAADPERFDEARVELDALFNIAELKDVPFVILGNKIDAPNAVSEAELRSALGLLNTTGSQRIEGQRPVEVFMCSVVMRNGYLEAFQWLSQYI
binder,measurement,value
"MRRRSRC [GalNAcT2 cytoplasmic domain peptide (wild type, MRRRSRC)]",binding result,binds
